According to patent US20210260163A1 (ASKGENE PHARMA, published 2021):
Changes are numbered by the printed parent chain. Numbers in names are those of the source. Blank lines part the entries; values can stand above or below the binder they belong to.

Assays:
[1] = molecular target: T1, IL-2 ("IL-2 proteins" coated on the ELISA plate) (UniProt P60568 21-153, limits assumed); assay: ELISA, IL-2 coated, Fc-mask fusion titrated, pH 6.4
Description: (§1) 10 μg/ml of IL-2 proteins in PBS were seeded to the 96-well plate at 100 μl/well and coated at 4 degree for overnight. The wells were washed by PBS three times and blocked with 100 μl 2% milk/PBS for 1 hr. Then the wells were washed three times by PBS and 100 μl protein samples with 3-fold serial dilution were added to the wells for 1 hr incubation at room temperature. After three times of PBS washing, 100 μl of HRP conjugated anti-IgG antibody were added and incubated at RT for 1 hr. Subsequently, the wells were washed again by PBS for 3 times, detection reagents were added and OD450 nm were measured.
(§2) In order to discover improved versions of the IL-2 antagonist or mask with higher folds of activations upon protease cleavage, a number of mutations in the IL-2Rβ extracellular domain were constructed.

[2] = molecular target: T1, IL-2 ("IL-2 proteins" coated on the …); assay: ELISA, IL-2 coated, pH 6.4; reference understood as wild type (SEQ ID NO: 195)
Description: as §1, §2

[3] = molecular target: T1, IL-2 ("IL-2 proteins" coated on the …); assay: ELISA, IL-2 coated, pH 7.4
Description: as §1, §2

[4] = molecular target: T1, IL-2 ("IL-2 proteins" coated on the …); assay: ELISA, IL-2 coated, pH 6.4; reference wild type
Description: as §1, §2

[5] = molecular target: T1, IL-2 ("IL-2 proteins" coated on the …); assay: ELISA, IL-2 coated, Fc-mask fusion titrated, pH 7.4
Description: as §1, §2

[6] = molecular target: T1, IL-2 ("IL-2 proteins" coated on the …); assay: ELISA, IL-2 coated, pH 7.4 and pH 6.4; reference understood as wild type (SEQ ID NO: 195)
Description: as §1, §2

T1 sequence (P60568 21-153 limits assumed): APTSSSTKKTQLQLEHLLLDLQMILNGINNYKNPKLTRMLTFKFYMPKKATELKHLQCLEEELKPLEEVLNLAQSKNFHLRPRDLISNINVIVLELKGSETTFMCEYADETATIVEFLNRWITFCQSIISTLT

B1: Fc with LALA and hole mutation (L234A-L235A-Y407T) fused with beta subunit containing mutation (E136Q) (SEQ ID NO: 204), homodimer (Fc fusion)
chain: DKTHTCPPCPAPEAAGGPSVFLFPPKPKDTLMISRTPEVTCVVVDVSHEDPEVKFNWYVDGVEVHNAKTKPREEQYNSTYRVVSVLTVLHQDWLNGKEYKCKVSNKALPAPIEKTISKAKGQPREPQVYTLPPSREEMTKNQVSLTCLVKGFYPSDIAVEWESNGQPENNYKTTPPVLDSDGSFFLTSKLTVDKSRWQQGNVFSCSVMHEALHNHYTQKSLSLSPGKGGGGSGGGGSGGGGISSGLLSSGGSGGSLSGRSDNHGGGGSAVNGTSQFTCFYNSRANISCVWSQDGALQDTSCQVHAWPDRRRWNQTCELLPVSQASWACNLILGAPDSQKLTTVDIVTLRVLCREGVRWRVMAIQDFKPFENLRLMAPISLQVVHVETHRCNISWEISQASHYFQRHLEFEARTLSPGHTWEEAPLLTLKQKQEWICLETLTPDTQYEFQVRVKPLQGEFTTWSPWSQPLAFRTKPAALGKDT
Kd [1]: 128 µg/mL
fold better binding affinity at pH 6.4 [2]: 2 fold

B2: Fc with LALA and hole mutation (L234A-L235A-Y407T) fused with beta subunit containing mutation (S69H) (SEQ ID NO: 201), homodimer (Fc fusion)
chain: B1 chain with S337H, Q404E
Kd [1]: 187 µg/mL
fold better binding affinity at pH 6.4 [2]: 2 fold

B4: Fc-mask fusion with beta subunit containing mutation (E136Q/H138R) (SEQ ID NO: 205), homodimer (Fc fusion)
chain: B1 chain with H406R
fold enhancement of binding affinity at pH 6.4 against wild type [4]: 2 fold
Kd [1]: 105 µg/mL
Kd [5]: 269 µg/mL

B5: Fc with LALA and hole mutation (L234A-L235A-Y407T) fused with beta subunit containing mutation (V75F) (SEQ ID NO: 203), homodimer (Fc fusion)
chain: B1 chain with V343F, Q404E
binding result [3]: no binding

B7: Fc with LALA and hole mutation (L234A-L235A-Y407T) fused with beta subunit containing mutation R15Y (SEQ ID NO: 199), homodimer (Fc fusion)
chain: B1 chain with R283Y, Q404E
binding result [3]: no binding

The remaining lines, values ahead:

binding result [3]: no binding
B3: Fc with LALA and hole mutation (L234A-L235A-Y407T) fused with beta subunit containing mutation (V75Q) (SEQ ID NO: 202), homodimer (Fc fusion)
chain: B1 chain with V343Q, Q404E

Kd [1]: 118 µg/mL
Kd [5]: 124 µg/mL
fold increase of binding affinity at pH 7.4 and pH 6.4 [6]: 2 fold
B6: Fc with LALA and hole mutation (L234A-L235A-Y407T) fused with beta subunit containing mutation (D68E) (SEQ ID NO: 200), homodimer (Fc fusion)
chain: B1 chain with D336E, Q404E

Kd [1]: 269 µg/mL
Kd [5]: 219 µg/mL
B8: Fc with LALA and hole mutation (L234A-L235A-Y407T) with beta subunit (SEQ ID NO: 195), expressed as homodimer (Fc fusion)
chain: DKTHTCPPCPAPEAAGGPSVFLFPPKPKDTLMISRTPEVTCVVVDVSHEDPEVKFNWYVDGVEVHNAKTKPREEQYNSTYRVVSVLTVLHQDWLNGKEYKCKVSNKALPAPIEKTISKAKGQPREPQVYTLPPSREEMTKNQVSLTCLVKGFYPSDIAVEWESNGQPENNYKTTPPVLDSDGSFFLTSKLTVDKSRWQQGNVFSCSVMHEALHNHYTQKSLSLSPGKGGGGSGGGGSGGGGSLSGRSDNHGGGGSAVNGTSQFTCFYNSRANISCVWSQDGALQDTSCQVHAWPDRRRWNQTCELLPVSQASWACNLILGAPDSQKLTTVDIVTLRVLCREGVRWRVMAIQDFKPFENLRLMAPISLQVVHVETHRCNISWEISQASHYFERHLEFEARTLSPGHTWEEAPLLTLKQKQEWICLETLTPDTQYEFQVRVKPLQGEFTTWSPWSQPLAFRTKPAALGKDT
notes: also called WT
